{"source": "patent US20250290123", "key": {"[1]": {"tested_on": "LigAT_C-RNAseH-Ecoli (ATCV-1 ligase fused at C-terminus to inactive E. coli RNase H) (Acanthocystis turfacea chlorella virus 1 / Escherichia coli)", "details": "CE ligation assay"}, "[2]": {"tested_on": "LigAT-HU (control ligase)", "details": "CE ligation assay, control buffer, 2 h 37 C"}, "[3]": {"tested_on": "LigAT-HU (control ligase)", "details": "5'-phosphate; control buffer 37 C; less than 5% at 55 C"}, "[4]": {"tested_on": "LigAT_C-RNAseH-Sto (Acanthocystis turfacea chlorella virus 1 / Sulfolobus tokodaii)", "details": "5'-phosphate; Buffer 2B, 37-55 C, 2 h"}, "[5]": {"tested_on": "LigAT_C-RNAseH-Ecoli (ATCV-1 ligase fused at C-terminus to inactive E. coli RNase H) (Acanthocystis turfacea chlorella virus 1 / Escherichia coli)", "details": "5'-phosphate; Buffer 1B, 37-55 C, 2 h, 1 uM ligase"}}, "note": "Read-outs that look alike come from different tables or passages of the source."}
{"substance": "TA junction template and substrates", "values": [{"measurement": "activity (% ligation yield)", "setting": "[1]", "result": 45}]}
{"substance": "GG junction template and substrates", "values": [{"measurement": "activity (% ligation yield)", "setting": "[2]", "result": "< 10"}, {"measurement": "activity (% ligation yield)", "setting": "[1]", "result": 27}]}
{"substance": "AT junction template and substrates", "values": [{"measurement": "activity (% ligation yield)", "setting": "[1]", "result": 37}]}
{"substance": "CT junction template and substrates", "values": [{"measurement": "activity (% ligation yield)", "setting": "[1]", "result": 43}]}
{"substance": "DNA padlock probes annealed to RNA template", "values": [{"measurement": "activity (% ligated product)", "setting": "[3]", "result": 25}, {"measurement": "activity (% ligated product)", "setting": "[4]", "result": "> 75"}, {"measurement": "activity (% ligated product)", "setting": "[5]", "result": "> 75"}]}
{"substance": "AC junction template and substrates", "values": [{"measurement": "activity (% ligation yield)", "setting": "[1]", "result": 36}]}
{"substance": "AG junction template and substrates", "values": [{"measurement": "activity (% ligation yield)", "setting": "[2]", "result": "< 10"}, {"measurement": "activity (% ligation yield)", "setting": "[1]", "result": 23}]}
{"substance": "AA junction RNA template with DNA substrates A and pA", "values": [{"measurement": "activity (% ligation yield)", "setting": "[1]; 5'-phosphate on SEQ 43, matched junction", "result": 37}]}
{"substance": "TC junction template and substrates", "values": [{"measurement": "activity (% ligation yield)", "setting": "[1]", "result": 49}]}
{"substance": "TG junction template and substrates", "values": [{"measurement": "activity (% ligation yield)", "setting": "[1]", "result": 40}]}
{"substance": "CC junction template and substrates", "values": [{"measurement": "activity (% ligation yield)", "setting": "[2]", "result": "< 10"}, {"measurement": "activity (% ligation yield)", "setting": "[1]", "result": 33}]}
{"substance": "CA junction template and substrates", "values": [{"measurement": "activity (% ligation yield)", "setting": "[1]", "result": 39}]}
{"substance": "GC junction template and substrates", "values": [{"measurement": "activity (% ligation yield)", "setting": "[2]", "result": "< 10"}, {"measurement": "activity (% ligation yield)", "setting": "[1]", "result": 35}]}
{"substance": "TT junction template and substrates", "values": [{"measurement": "activity (% ligation yield)", "setting": "[1]", "result": 50}]}
{"substance": "GA junction template and substrates", "values": [{"measurement": "activity (% ligation yield)", "setting": "[1]", "result": 48}]}
{"substance": "GT junction template and substrates", "values": [{"measurement": "activity (% ligation yield)", "setting": "[1]", "result": 47}]}
{"substance": "CG junction template and substrates", "values": [{"measurement": "activity (% ligation yield)", "setting": "[2]", "result": "< 10"}, {"measurement": "activity (% ligation yield)", "setting": "[1]", "result": 17}]}
